B1: α-1 antichymotrypsin: human serpin, inhibitor of chymotrypsin-like proteases (protein, UniProt P01011 24-423, looked up)
Alpha-1-antichymotrypsin: HPNSPLDEENLTQENQDRGTHVDLGLASANVDFAFSLYKQLVLKAPDKNVIFSPLSISTALAFLSLGAHNTTLTEILKGLKFNLTETSEAEIHQSFQHLLRTLNQSSDELQLSMGNAMFVKEQLSLLDRFTEDAKRLYGSEAFATDFQDSAAAKKLINDYVKNGTRGKITDLIKDLDSQTMMVLVNYIFFKAKWEMPFDPQDTHQSRFYLSKKKWVMVPMMSLHHLTIPYFRDEELSCTVVELKYTGNASALFILPDQDKMEEVEAMLLPETLKRWRDSLEFREIGELYLPKFSISRDYNLNDILLQLGIEEAFTSKADLSGITGARNLAVSQVVHKAVLDVFEEGTEASAATAVKITLLSALVETRTIVRFNRPFLMIIVPTDTQNIFFMSKVTNPKQA

Test system: alfalfa leaf proteases (fraction #8)
Test: Fibronectin proteolysis by alfalfa leaf Mono-Q fraction #8 with protease inhibitors, immunodetection
Type: biochemical, alfalfa (cultivar Saranac)
Conditions: for proteolysis of fibronectin by the Mono-Q fraction in presence of inhibitor: 5 μl fraction #8, 350 ng fibronectin, 37° C., 15 min, FIG. 5B
Protocol: Firstly, a protein extract from alfalfa leaves was separated by chromatography to isolate a specific fraction containing the greatest protease activity. Alfalfa (cultivar Saranac) leaves were extracted by grinding in liquid nitrogen and resolubilization in 50 mM Tris-HCl, pH 6,8, containing 10 mM β-mercaptoethanol. The crude extract was centrifuged for 15 min at 10000 g at 4° C., and the supernatant was filtered through a 0.3 μm pore size filter. Fifteen mg of leaf proteins were then loaded on of a Mono-Q FPLC column (Pharmacia) equilibrated with extraction buffer. Proteins were eluted with a linear gradient of KCl (0 to 0.7 M) in extraction buffer, at a flow rate of 2 ml/min. Fractions of 500 μl were collected, and sample of each fraction was loaded onto a gelatin/PAGE gel (FIG. 5A). Fraction #8, which caused the highest proteolysis of gelatin in gel, was use to assess the protective effect of α-1 antichyinotrypsin.
Secondly, the identified fraction #8 was used in conjunction with various protease inhibitors to identify potential candidates for the inhibition of fibronectin proteolysis. In the experiment illustrated in FIG. 5B, 5 μl of fraction #8 was mixed with 350 ng of fibronectin and incubated at 37° C. for 15 min, in the presence of 2 μl H2O (lane 2), 2 μl of 10 mM chymostatin (lane 3) or 2 μl α-1 antichymotrypsin (lane 4). The control (lane 1) contained 5 μl extraction of buffer instead of alfalfa proteases. The reaction was stopped after 15 min. and fibronectin was immunodetected as in FIG. 1C. […] Note that both protein (α-1 antichymotrypsin) and chemical (chymostatin) molecules were efficient to decrease degradation of fibronectin.

Molecule	proteolysis of fibronectin by the Mono-Q fraction in presence of inhibitor	stability of fibronectin on inhibiting alfalfa proteases (FIG. 5)
CC(C)C[C@H](NC(=O)[C@@H](NC(=O)N[C@@H](Cc1ccccc1)C(=O)O)[C@@H]1CCN=C(N)N1)C(=O)N[C@H](C=O)Cc1ccccc1 [chymostatin, reference compound]	prevented	–
B1	prevented	significantly increased

— patent publication US20050251885A1, “Method for enhancing yield of recombinant protein production from plants” (UNIVERSITE LAVAL, priority 2002, published 2005)
